According to the DeepSol protein solubility set:

Assay: soluble on expression in E. coli; label from the status in PepcDB or PDB records

Row | Sequence | soluble on expression in E. coli
1 | MSHTVAGGGSGDHSHQVRVKAYYRGDIMITHFEPSISFEGLCNEVRDMCSFDNEQLFTMKWIDEEGDPCTVSSQLELEEAFRLYELNKDSELLIHVFPCVPERPGMPCPGEDKSIYRRGARRWRKLYCANGHTFQAKRFNRRAHCAICTDRIWGLGRQGYKCINCKLLVHKKCHKLVTIECGRHSLPQEPVMPMDQSSMHSDHAQTVIPYNPSSHESLDQVGEEKEAMNTRESGKASSSLGLQDFDLLRVIGRGSYAKVLLVRLKKTDRIYAMKVVKKELVNDDEDIDWVQTEKHVFEQASNHPFLVGLHSCFQTESRLFFVIEYVNGGDLMFHMQRQRKLPEEHARFYSAEISLALNYLHERGIIYRDLKLDNVLLDSEGHIKLTDYGMCKEGLRPGDTTSTFCGTPNYIAPEILRGEDYGFSVDWWALGVLMFEMMAGRSPFDIVGSSDNPDQNTEDYLFQVILEKQIRIPRSMSVKAASVLKSFLNKDPKERLGCLPQTGFADIQGHPFFRNVDWDMMEQKQVVPPFKPNISGEFGLDNFDSQFTNERVQLTPDDDDIVRKIDQSEFEGFEYINPLLMSAEECV | not soluble
2 | MSLYKILLADDERIILDGMAGIIEWESLGASLIGKAQNGHEAYEKIVHKQPHIVITDVKMPGMDGLELIKKVSAVSPSVQFIVLSGFGEFEYAKEAMKYGVKHYLLKPCNEQQIISSLEEIIAELKRQDVHKKKTAHLKHELDHIRSFAADQYLEGLIAGVAQLSPPPSLAGKKIRLLILKGEQSIDAAAREALGSALTAVCSSGEWTVLAVEENAAEKVAEVFADRKMAISQAGELRHAGQLFRDTAEASGDLHGSAVISKMIRLIADELGNPNLSLKWAAKDMLFMNPDYLGKLFKQETGEKFSQYVTRVRLEHAMKQMKIRRDVSVSEIAEEIGFGDNPKYFSLVFKKYTGLTPSEFRRKQGGASAGEGHHHHHH | soluble
3 | MRERAYFIGAHAYSAPIIEPALYLVATPIGNLADITLRALQVLAGVDILACEDTRVTRVLLERYGIQKKTFLYHEYNAQKAGPKLLTALEENKAIALVSDAGTPLISDPGFRLVEEARKAGHKIVPIPGASALLAALVATGLPTDSFFFAGFLSARKAQRQKRLEQLKTIPATLVFYESPHRLVETLQDMVALFSADRPAAICRELTKKFETVDVSNLGNLSESYGKQAHIRGEIVVLVGQKLSSLNVMSDHEIDEMLLELARTYSAAKAASLASKKTGLKKQELFQRLNFLKDA | not soluble
4 | MAVKHASAPKAYINITGLGFAKLTKEGAELKYSDITKTRGLQKIGVETGGELKTAYADGGPIESGNTDGEGKISLQMHAFPKEIRKIVFNEDYDEDGVYEEKQGKQNNYVAVWFRQERRDGTFRTVLLPKVMFTNPKIDGETAEKDWDFSSEEVEGEALFPLVDNKKSVRKYIFDSANMTNHGGDGEKGEEAFLKKILGEEYTGNVTEDNEETLLEHHHHHH | soluble
5 | MGSDKIHHHHHHMYKYKFTVFTPTYNRAHLLENLYNDLKAQTYDFNDFEWLIVDDGSSDSTKELVEKFISENKLNIRYIYKENGGKHTAINLGVKNADGELFFIVDSDDGLIKDSLEIANDEWDSLENKEGFSGVVGLCVYPSGDLIGTEMPEDKKICHFADLYFKYGVKGDKSIVFVTDELIKFPFPERKEVRFLPESVVWNEMSKYYKVICVNKPMIIRDYLDDGLTKNILSKNALRGRALEFLYLINQNTYPLSRYPYMWIKNYINLARYSLLSDSHYFGELRKVSDKLLYLALFPLGYYKYIGQRKLVSK | not soluble
6 | MGSDKIHHHHHHMSEQMFEGWNGAIVVTPETVKIIYGNQHSKGEGEKEITLESIQSIELKKPRFLAQGYIQLILEGSKKKKGALAAMGDEHSIMINDEAQYKQFEQAKELIELFQHEQKLVSEQNEKGEGWREDVFKGGNGTLVVTPETIKIIYSWLHTRGRGEKTINIRSISSIQLKEPAVVAGYIQFTFQGSIENQSRSSFSAIDDQNTIAISNKHQFEDFKRAKALIESYQNQLYAPQIQSSSTSGADELKKYKELLDDGIISEEEFNAKKKQILGI | not soluble
7 | MTLGARLVAPMIILLLFIPIELVKAEVITLTPETFSDKIKEKDTAWFVKFCVPWCKHCKKLGNLWEDLGKAMEGDDEIEVGEVDCGTSRAVCTKVEIHSYPTFMLFYNGEEVSKYKGKRDVESLKAFVVEETEKAAEKAQLEDKEL | soluble
8 | MELHIWPSDFGLPTIDVVSLQFLACSKMCASPVRVIQSTRPWRSPSGELPMVAQTEGEAKPVTDFEKFVDILKKCGQDVVIDADLTTIEKAQLDAFSCYLHHNLYPAVMHTFWTDELNYNTVTQYWYASHLHFPYNLYYLEKRRKKALRLLAGKNDTEILKEAFMALNTLSTKLGDNKFFCGNKPTSLDALVFGYLAPLLRVPLPNDRLQVQLSACPNLVRFVETVSSIYLPLGEDELKRQQANRKMWQSRISKAKADKEAAKTTEEASESLPEEPPMRDAILFTLGALTLSLVFAIHTGLIQVSVEEEISE | not soluble
9 | DIQMTQSPSSLSASVGDRVTITCRSSQSLVHNNANTYLHWYQQKPGKAPKLLIYKVSNRFSGVPSRFSGSGSGTDFTLTISSLQPEDFATYYCSQNTLVPWTFGQGTKVEIKRTVAAPSVFIFPPSDEQLKSGTASVVCLLNNFYPREAKVQWKVDNALQSGNSQESVTEQDSKDSTYSLSSTLTLSKADYEKHKVYACEVTHQGLSSPVTKSFNRGEC | soluble
10 | FGYIVELNWKLSKILNCQPEYVYPKLDELLGCLLTKKPLHEYGMKDEEVRGFAESVLKTQQRLLANNYVELTVDEIEGIYRRLY | not soluble
11 | MPIRGFHYRGDEAIYPASVVKLFYLVAALEWLQQGMIQPSAELDRALRDMIVDSSNDATGYIVDLLSGTTSGPELGDGPFKTWQFQRNIVNRYYQSLMWPELQPINVNQKTWGDGPYGRERAFYGPEFENRNKLTTNATARLLHAIAGGVAVSPSASQRMLNLLNRPFDPRSLAEDPENQVTGFLGQDLPQGSQLWSKAGWMSRVRHDAAYLEIPGLPPHLLVAFTEGKEHANNEAILPFIAQQVRQQLQPALEHHHHHH | not soluble
12 | MSLHRLNLNGYEPDRHHEAAVAFCIHAGTDELTSPVHQHRKGQLILALHGAITCTVENALWMVPPQYAVWIPGGVKHSNQVTANAELCFLFIEPSAVTMPTTCCTLKISPLCRELILTLANRTTTQRAEPMTRRLIQVLFDELPQQPQQQLHLPVSSHPKIRTMVEMMAKEPVEWGSLGQWAGFFAMSERNLARLIVKETGLSFRQWRQQLQLIMALQGLVKGDTVQKVAHTLGYDSTTAFITMFKKGLGQTPGRYIAGLTTVSPQSAKPDPREGHHHHHH | soluble
13 | EKAVLIGEKEADITFVTWGSQKGPILDVIEDLKEEGISANLLYLKMFSPFPTEFVKNVLSSANLVIDVESNYTAQAAQMIKLYTGIDIKNKILKYNGRHMTEDEILKSAKEILNKESLMVVLEDGS | not soluble
14 | SEIESDPNDGHHHHHRRLHLDLSVDERSPRHGISELLQKLRPEWKPDDIQIKVFTEGITNQLMGCYVGSMTRDPVLLVRVYGQMTELFMDREKEMEMFRVLHKHGCGPQLYCSFNNGICYEFVRGVVLDDTLLHQPSVYRLIATEMGKIHSIKSGDSGARSAVTPVLWSRLSQFLNLLQSADDPEQQRSSADGETPSLEIIMREMEELKSHLARINSPVVLCHNDLLTKNVIYNQEEGAVKFIDYEYADFNYQAYDIGNHFNEFAGIDNVDSSLYPSDELQFDWLSAYLESFKRCSTGDSAVTQTEVQELYEQVCQFSLVAHLFWCLWALLQAKHSTIDFDFQRYARARFNYYFEKKREFCGLTPP | soluble
15 | MSLTTMKEIAEQTGVSISTVSLVLNGRDEGRVNPALAKLVRNKATELGYKINPLARSLRTNKTRILGFISEEVATTPYAGGIILGAQDAASAYGYMLFTVSTDGKASEENEIATLKRYGVDGFFYSKMSNRIAHVPESLSDYPVVMVDATDYENKVPSVEPDEFMIGYDATIRLLQADCKRIAYVGCAENMIAQDGRLAGYCTALQEAGRAFNPSLVCNVMNDGPALRAVNKLFDDEHPDGFFCFNDARAWYVYECAARRGLTVGKDISVVGVDNHRVFAETLEPQLTTVELPHYEMGYWSACKLISMIEGKDVDTSSCPSARASLPPLDAPIPAKIHCALLEKDSVISEGHHHHHH | soluble
16 | FHLGKCPNPPVQENFDVNKYPGRWYEIEKIPTTFENGRCIQANYSLMENGKIKVLNQELRADGTVNQIEGEATPVNLTEPAKLEVKFSWFMPSAPYHILATDYENYALVYSCTSISQSFHVDFAWILARNVALPPETVDSLKNILTSNNIDVKKMTVTDQVNCPKLSAHHHHHH | soluble
